Laboratory results published in article PMC6222107 (The Journal of Biological Chemistry, 2018).

Columns and labels:
[1] = test system: CN[C@@H](Cc1ccc(O)cc1)C(=O)O; assay: steady-state oxygen depletion, oxygen sensor; format: biochemical, Aspergillus fumigatus; conditions: pH 7.6, 25 °C, 100 mM Tris/HCl, 150 mM NaCl, air-saturated (O2 co-substrate)
Text: (§1) steady-state oxygen depletion, oxygen sensor on FsqB

[2] = test system: CNC(Cc1ccc(O)c(O)c1)C(=O)O; assay: steady-state oxygen depletion, oxygen sensor; format: biochemical, Aspergillus fumigatus; conditions: pH 7.6, 25 °C, 100 mM Tris/HCl, 150 mM NaCl, air-saturated (O2 co-substrate)
Text: as §1

[3] = test system: CN[C@@H](Cc1ccc(O)c(O)c1)C(=O)O; assay: steady-state oxygen depletion, oxygen sensor; format: biochemical, Aspergillus fumigatus; conditions: pH 7.6, 25 °C, 100 mM Tris/HCl, 150 mM NaCl, air-saturated (O2 co-substrate)
Text: as §1

CNC(Cc1cccc(O)c1)C(=O)O = assay: steady-state oxygen depletion, oxygen sensor; format: biochemical, Aspergillus fumigatus; conditions: pH 7.6, 25 °C, 100 mM Tris/HCl, 150 mM NaCl, air-saturated (O2 co-substrate), error ± 0.6
Text: as §1

[4] = molecular target: the molecule itself; assay: crystal structure; hexagonal crystals (P6522), one chain in the asymmetric unit; dimer with a symmetry-related molecule by a crystallographic 2-fold axis, analysed with the EBI-Pisa server; 2.6 A

Molecule	Km [1]	kcat [1]	kcat/Km [1]	Km [2]	kcat [2]	kcat/Km [2]	Km [3]	kcat [3]	kcat/Km [3]	Km (CNC(Cc1cccc(O)c1)C(=O)O)	kcat (CNC(Cc1cccc(O)c1)C(=O)O)	kcat/Km (CNC(Cc1cccc(O)c1)C(=O)O)	binding result [4]
FsqB (Aspergillus fumigatus Af293)	2100 ± 200 µM	3.9 ± 0.2 s⁻¹	1910 ± 20 M⁻¹ s⁻¹	160 ± 10 µM	8.5 ± 0.1 s⁻¹	53000 ± 4000 M⁻¹ s⁻¹	270 ± 20 µM	8.2 ± 0.2 s⁻¹	30000 ± 3000 M⁻¹ s⁻¹	1600 ± 200 µM	3.5 ± 0.1 s⁻¹	2180 ± 40 M⁻¹ s⁻¹	–
FsqB (fumisoquin biosynthesis gene B product), flavoprotein of the amine oxidase family (enzyme, Aspergillus fumigatus, FAD covalently bound through its 8alpha-methyl group to Cys-414, FsqB of Aspergillus fumigatus, gene Afu6g03440, codon-optimized synthetic gene in pET21a; the domains described in the structure span residues 1-496; Molecular mass printed as 55 kDa; Dimer generated by a crystallographic 2-fold axis; one chain in the asymmetric unit; also called WT FsqB; Afu6g03440) MSIPNSFIIVGSGVFGLSLAYALSLDDRFADKKIILVDRWNFEPPNATGSVHNPAAANADTSRVIRRDYPHGPYASLALEAMKHWRGKFGENNRYVNQRLLFSGEGSSLTTPPKALETVNYIKKAYAISCELTPGGRDAVQVLDSLDEVRAFLGNTPSHPPHLPVNKDPAARDLRGYVSNDCGWADAGASIEWLRQEVLRLGRVECVVGEVESLVYSDDQRAVKGVKLVDGKVLTAELTVIAAGARSSHILGIPKLCDVYSEFVAYIQLTKEEADELRRRQWPILVNCHRGVFAVGPDHDNCLKFGHFSYSGIVDVLREASIQVPTRPDGWEAQQKYWSDPRFAFGGEVKVSALGDVDDYENPAAQRALADYRLFLLELLGPTGLQGVDTLGLDQSDNLLNNIANRPFTRVRKCWYNDTPALDFVVDYHPSYGKTLFVATGGCDHAFKFLPIIGEKTLALILRNRGDSAVSLPAGVEPSLEELSELWRFPVELLQDN	–	–	–	–	–	–	–	–	–	–	–	–	binds
